Assay results taken from publication PMC3500403 (Developmental cell, 2012).

Target: taxol stabilized microtubules (UniProt Q6B856 1-445)
Experiment: co-sedimentation

B1: C. elegans SKA-1 microtubule binding domain (residues 118-243) (domain or fragment, UniProt Q9XWS0 118-243, looked up)
chain: NDIRIVPQITDEEFKTIPKYQLGRLTLEMMNEIVSKMDDFLMKKSKILGKTNKQLTRSDREVLDNWRELEMKARKRLPTTLFFIETDIRPMLQDRLRPSFAKAIPCLRHIRRIREERCGPLTFYYP
  Kd: 6.3 µM
